Results published in US8106168B2, “Metalloproteinase binding proteins” (Dyax Corp., priority 2005, dated 2012).

Legend:
[1] = molecular target: T1, MMP-14 (Homo sapiens, UniProt P50281); assay: Selection and phage ELISA screening of anti-MMP-14 Fabs; format: binding; conditions: Fab from FAB310 phage display library
Procedure, shortened: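 Phage ELISA screened 95 clones from each of rounds 2 and 3 against biotinylated MMP-14 (1 μg/ml) captured on streptavidin, in TRIS/CaCl2/NaCl pH 7.5. The clones came from Fab library selections on biotinylated MMP-14, either free or TIMP-2-complexed (500 nM round 1, 100 nM later rounds). Elution used 2.5 μM TIMP-2 followed by TEA.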

[2] = molecular target: T1, MMP-14; assay: IC50 for MMP-14 inhibition by Fabs and IgGs; format: biochemical; conditions: Fab
Description: MMP-14 binding proteins can be characterized in assays that measure their modulatory activity toward MMP-14 or fragments thereof in vitro or in vivo. For example, MMP-14 can be combined with a substrate such as Mca-Pro-Leu-Ala-Cys(Mob)-Trp-Ala-Arg-Dap(Dnp)-NH2 under assay conditions permitting cleavage by MMP-14. The assay is performed in the absence of the MMP-14 binding protein, and in the presence of increasing concentrations of the MMP-14 binding protein. The concentration of binding protein at which 50% of the MMP-14 activity (e.g., binding to the substrate) is inhibited is the IC50 value (Inhibitory Concentration 50%) or EC50 (Effective Concentration 50%) value for that binding protein.

[3] = molecular target: T2, MMP-16 (Homo sapiens, UniProt P51512); assay: Cross-reactivity of anti-MMP-14 IgGs, enzymatic activity: MMP-16; format: biochemical; conditions: 1 μM anti-MMP-14 IgG
Description: (§1) The cross-reactivity of exemplary anti-MMP-14 IgGs and Fabs with other human MMPs and TACE (TNF-alpha converting enzyme) was examined. MMP and TACE enzymatic activity was monitored in the absence and presence of 1 μM anti-MMP-14 IgG antibody. Inhibition (Y) of activity ranged from approximately 50-80% of the reaction rate observed in the absence of antibody. “X” indicates no inhibition was observed. Cross-reactivity was not determined for MMP-17 because protein activity could not be detected.
(§2) For the studies summarized in Table 12, six anti-MMP-14 IgGs were selected for cross-reactivity testings: M0043-G02, M0040-A06, M0037-D01, M037-C09, M0038-F01, M0033-H07.

[4] = molecular target: T3, MMP-24 (Homo sapiens, UniProt Q9Y5R2); assay: Cross-reactivity of anti-MMP-14 IgGs, enzymatic activity: MMP-24; format: biochemical; conditions: 1 μM anti-MMP-14 IgG
Description: as §1, §2

[5] = molecular target: T2, MMP-16; assay: Cross-reactivity of Fabs and IgGs with MMP-16 (Example 8); format: biochemical; parameters: key to MMP-16 (cross-reactivity, class symbol): X: Does not inhibit MMP-16 at [I] = 100 nM level; conditions: 5 nM MMP16, 30 minutes at 30° C., 10 μM substrate
Description: For the studies summarized in Tables 13 and 14, 100 nM anti-MMP-14 Fab/IgG were incubated with 5 nM MMP16 for 30 minutes at 30° C., 10 μM of substrate was added, and the MMP-16 activity was measured.

[6] = molecular target: T2, MMP-16; assay: Cross-reactivity of Fabs with MMP-16 (Example 9); format: biochemical; parameters: key: X: Do not inhibit MMP-16 or MMP-24 at [I] = 100 nM level; Y: partially inhibit at [I] = 100 nM level; conditions: Fab, 100 nM final inhibitor concentration, 5 nM MMP-16
Description: (§3) For the studies summarized in Table 15, 1 μM of anti-MMP-14 Fab/IgG (100 nM final inhibitor concentration) were incubated with 5 nM of MMP-16 or 5 nM of MMP-24 for 30 minutes at 30° C., 10 μM of substrate was added, and the MMP-16 activity was measured.

[7] = molecular target: T3, MMP-24; assay: Cross-reactivity of Fabs with MMP-24 (Example 9); format: biochemical; parameters: key to MMP-24 (cross-reactivity, class symbol): X: Do not inhibit MMP-16 or MMP-24 at [I] = 100 nM level; Y: partially inhibit at [I] = 100 nM level; conditions: Fab, 100 nM final inhibitor concentration; 5 nM MMP-24
Description: as §3

[8] = system: activation of pro-MMP-2 by MMP-14 in PMA-activated HT-1080 cells; assay: Gelatin zymogram, pro-MMP-2 activation in HT-1080 cells; format: cell-based, human; conditions: gelatin zymography of conditioned media after 3 days; antibodies 10 μg/ml, GM6001 10 μM
Description: The ability of anti-MMP-14 IgGs to inhibit the activation of pro-MMP-2 by MMP-14 was examined by gelatin zymogram experiments performed with PMA-activated HT-1080 cells. M0033-H07 and M0038-F01 were tested for their ability to inhibit MMP-14 in this assay. HT1080 cells (well-known to express MMP-14 and MMP-2) were seeded at 5×10^5 cells/well at Day 0. […] HT-1080 cells cultured in the presence of 20 ng/ml of PMA were used as a positive control.
After 3 days of incubation, conditioned media were collected and gelatinolytic activities were analyzed by gelatin zymography as described previously (Maquoi et al, J Biol Chem 2000; 275:11368-78). When HT-1080 cells are activated with a phorbol ester, pro-MMP-2 is activated into MMP-2 (lane 1).

[9] = system: Tumor Cells Expressing MMP-14 (HT-1080, LNCaP, MDA-MB-231, PC3); assay: Binding of IgGs to tumor cells, immunocytochemistry and flow cytometry; format: cell-based, human; conditions: ICC versus flow cytometry
Description: The ability of twelve biotinylated-MMP-14 binding IgGs to bind to tumor cells expressing MMP-14 was evaluated using both immunocytochemistry (ICC) and flow cytometry. The cell lines tested were HT-1080 (a human fibrosarcoma cell line), LNCaP (human, prostate, carcinoma), MDA-MB-231 (human, breast, adenocarcinoma), or PC3 (Human prostatic cancer cells) cells. MMP-14 is expressed on HT-1080 cells (Cancer Res. (2005) 65(23):10959-69.). MMP-14 is expressed on PC-3 cells (Oncol Rep. (2006) 15(1):199-206). LNCaP express MMP-14 (Endocrinology (2003) 144(5):1656-1663) at a relatively low level. […] MMP-14 is expressed by MDA-MB-231 cells (Int J Cancer. (2005) 114(4):544-554.).
Cells (2×10^5) were cultivated on cell culture slides in complete medium. At confluency, cells were washed with PBS and fixed with 4% paraformaldehyde for 30 minutes at room temperature. Endogenous peroxidases were blocked with 3% hydrogen peroxide for 20 minutes. Nonspecific binding sites were blocked by incubation with 10% heat inactivated human serum 10% normal rabbit serum for 30 minutes at room temperature. Cells were then incubated with biotinylated or non-biotinylated MMP-14 binding proteins at 10 μg/ml for 2 hours at room temperature. […] Binding was detected with the substrate AEC+(25 minutes at room temperature in the dark). […]

T2 sequence (P51512 120-607): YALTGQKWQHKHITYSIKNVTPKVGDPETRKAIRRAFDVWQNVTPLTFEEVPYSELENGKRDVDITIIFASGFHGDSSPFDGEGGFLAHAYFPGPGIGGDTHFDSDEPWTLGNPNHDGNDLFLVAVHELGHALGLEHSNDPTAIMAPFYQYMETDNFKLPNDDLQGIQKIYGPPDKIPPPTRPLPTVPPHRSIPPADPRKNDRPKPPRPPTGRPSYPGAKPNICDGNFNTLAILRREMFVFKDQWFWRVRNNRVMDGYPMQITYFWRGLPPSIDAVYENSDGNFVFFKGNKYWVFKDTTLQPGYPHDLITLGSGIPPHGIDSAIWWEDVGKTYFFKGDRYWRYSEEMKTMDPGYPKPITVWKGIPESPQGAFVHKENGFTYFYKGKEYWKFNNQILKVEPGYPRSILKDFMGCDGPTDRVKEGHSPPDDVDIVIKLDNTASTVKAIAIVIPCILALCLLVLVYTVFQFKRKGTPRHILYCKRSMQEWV
T3 sequence (Q9Y5R2 156-645): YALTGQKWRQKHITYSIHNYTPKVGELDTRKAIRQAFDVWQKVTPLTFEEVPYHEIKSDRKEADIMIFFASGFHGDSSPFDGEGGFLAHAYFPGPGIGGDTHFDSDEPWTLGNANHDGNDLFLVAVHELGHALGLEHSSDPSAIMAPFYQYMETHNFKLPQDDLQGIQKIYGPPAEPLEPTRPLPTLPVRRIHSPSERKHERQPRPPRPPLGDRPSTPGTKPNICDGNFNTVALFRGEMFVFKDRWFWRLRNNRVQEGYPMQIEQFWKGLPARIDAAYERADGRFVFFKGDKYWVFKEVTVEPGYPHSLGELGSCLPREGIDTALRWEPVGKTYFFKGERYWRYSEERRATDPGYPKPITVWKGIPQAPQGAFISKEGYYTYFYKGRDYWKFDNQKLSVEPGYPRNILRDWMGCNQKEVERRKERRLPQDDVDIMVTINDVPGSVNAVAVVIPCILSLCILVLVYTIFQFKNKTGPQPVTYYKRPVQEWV

| bind to human MMP-14 [1] | bind to and inhibit human MMP-14 [2] | MMP-16 (cross-reactivity, class symbol) ([5]; Fab 100 nM) | MMP-16 (cross-reactivity, class symbol) ([5]; IgG 100 nM) | MMP-16 (cross-reactivity, class symbol) [6] | MMP-24 (cross-reactivity, class symbol) [7] | Molecule | Cross reactivity: inhibition of MMP-16 activity [3] | Cross reactivity: inhibition of MMP-24 activity [4] | pro-MMP-2 activation by MMP-14 [8] | pro-MMP-9 expression [8] | Staining, remark on method [9] |
| --- | --- | --- | --- | --- | --- | --- | --- | --- | --- | --- | --- |
| bind to human MMP-14 | bind to and inhibit human MMP-14 | X | X | X | X | M0033-H07: human antibody (Fab, IgG) that binds and inhibits MMP-14; HC SEQ ID NO: 148, LC SEQ ID NO: 149 (antibody, V domains shown, Synthetically generated peptide) VH: EVQLLESGGGLVQPGGSLRLSCAASGFTFSVYGMVWVRQAPGKGLEWVSVISSSGGSTWYADSVKGRFTISRDNSKNTLYLQMNSLRAEDTALYYCARPFSRRYGVFDYWGQGTLVTVSS VL: QDIQMTQSPSSLSASVGDRVTITCRASQGIRNFLAWYQQKPGKVPKLLVFGASALQSGVPSRFSGSGSGTDFTLTISGLQPEDVATYYCQKYNGVPLTFGGGTKVEIK | Y (Inhibition (Y) of activity ranged from approximately 50-80% of the reaction rate observed in the absence of antibody) | Y (Inhibition (Y) of activity ranged from approximately 50-80% of the reaction rate observed in the absence of antibody) | partly inhibited | No stimulation | – |
| bind to human MMP-14 | bind to and inhibit human MMP-14 | X | X | X | X | M0038-F08: human antibody (Fab, IgG) that binds and inhibits MMP-14; HC SEQ ID NO: 158, LC SEQ ID NO: 159 (antibody, V domains shown, Synthetically generated peptide) VH: EVQLLESGGGLVQPGGSLRLSCAASGFTFSRYKMWWVRQAPGKGLEWVSGIRPSGGLTRYADSVKGRFTISRDNSKNTLYLQMNSLRAEDTAVYYCARRGDYVGGFDYWGQGTLVTVSS VL: QDIQMTQSPGTLSLSPGERATLSCRASQSVSSSYLAWYQQKPGQAPRLLIYGASSRATGIPDRFSGSGSGTDFTLTISRLEPEDFAVYYCQHYGGSQAFGGGTKVEIK | – | – | – | – | (only positive in immunocytochemistry, ICC) |
| bind to human MMP-14 | bind to and inhibit human MMP-14 | – | – | – | – | M0031-F01: human antibody (Fab, IgG) that binds and inhibits MMP-14; HC SEQ ID NO: 146, LC SEQ ID NO: 147 (antibody, V domains shown, Synthetically generated peptide) VH: EVQLLESGGGLVQPGGSLRLSCAASGFTFSTYEMHWVRQAPGKGLEWVSSIYSSGGWTGYADSVKGRFTISRDNSKNTLYLQMNSLRAEDTAVYYCARSQQYYDFSSRYYGMDVWGQGTTVTVSS VL: QSELTQPPSVSGTPGQRVTISCSGTSANIGRNAVHWYQQLPGTAPKLLIHSNNRRPSGVPDRFSGSKSGTSASLAISGLQSEDEADYYCAAWENSLNAFYVFGTGTKVTVL | – | – | – | – | (only positive in ICC) |
